Laboratory results: patent US20240052052A1 (published 2024)

T1: human CD24 (human, UniProt P25063 27-59, heavily glycosylated, GPI-anchored (as described in the background))
T1 chain: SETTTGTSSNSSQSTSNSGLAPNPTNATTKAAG

T2: Human CD24-mFc (human, UniProt P25063 27-59)
T2 chain: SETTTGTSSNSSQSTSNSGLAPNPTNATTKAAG

B1: 58F10-1F6 (antibody, V domains shown)
VH: EVQLRQSGPELVKPGAAVKISCKASGYSFTGYHMNWVKQSPEKSLEWIGEINPITSGITYNQIFKAKATLTVDKSSSTAYLQLKSLTSEDSAVYYCTRRDYGTSLDYWGQGTTLTVSS
VL: DIQMTQITSSLSASLGDRVTITCRASQDISNYLNWYQQKPDGTVKLLIYYTSRLLSGVPSRFSGSGSGTDYSLTISNLEQEDIATYFCQQDHTLPRTFGGGTKLEIR
B2: 71A4F12 (antibody, V domains shown)
VH: EVQLQQSGPELVKPGASVKIPCKASGYTFTAYNMDWVKQSHGMSLEWIGDINPNNGDTVYNQNFKGKATLTVDKSSSTAYMELRSLTSEDTAVYYCARRGSYYYGSSHYALDFWGQGTSVSVSS
VL: DIQMTQITSSLSASLGNRVTISCRASQDIRNYLNWYQQKPDGTVKLLIYYTSRLLSGVPSRFSGSGSGTDYSLTISNLEQEDIATYFCQQDNSLPRTFGGGTRLEIR
B3: 56A7E3 (antibody, V domains shown)
VH: EVQLQQSGPELVKPGASVKIPCKASGYTFTAYNMDWVKQSHGMSLEWIGDINPINGGTIYNQNFEGKATLTVDKSSSTAYLELRSLTSEDTAVYYCARRGSYYYGSSHYALDFWGQGTSVSVSS
VL: DIQMTQITSSLSASLGDRVTITCRASQDISNYLNWYQQKPDGTVKLLIYYTSRLLSGVPSRFSGSGSGTDYSLTISNLEQEDIATYFCQQDHTLPRTFGGGTKLEIR
B4: 100F2E3 (antibody, V domains shown)
VH: QVQLQQPGAELVRPGSSVKLSCKTSDYTFTSYWMDWVKQRPGQGLEWIGNIYPSDSKTHSNQKFRDKATLTVDKSSSTAYMQLNSLTSEDSAVYYCARRGGYYGYAMDYWGQGTSVTVSS
VL: DIVMTQSPSSLSVSAGEKVTMSCKSSQSLLNSGNQDNYLAWYQQKPGQPPKLLIYGASIRESGVPDRFTGSGSGTDFTLTISSVQAEDLAVYYCQNDHSYPYTFGGGTKLEIK
B5: 73H5-1G2 (antibody, V domains shown)
VH: QVQLKQSGPGLVQPSQSLSITCTVSGFSLTNYGVHWIRQSPGKGLEWLGVIWRGGSTDYNAAFMSRLSITKDNSKSQVFFQMNSLQAADTAIYYCANNYGYDCFAYWGQGTLVTVSA
VL: DVQITQSPSYLAASPGETITINCRASKSIIKYLAWYQEKPGKTNKLLIYSGSTLQSGIPSRFSGSGSGTDFTLTITSLEPEDFAMYYCQQHNEYPLTFGAGTRLELK
B6: 107D10D11 (antibody, V domains shown)
VH: QIQLKQSGPGLVQPSQSLSITCTVSGFSLSSYGVNWVRQSPGKGLEWLGMIWSGGNTDYNAAFISRVSFTKDNSKSQVFFTMNSLQADDTAIYYCARIWYYGMDYWGQGTSVTVSS
VL: DIVMTQSQKFMSTTVGDRVSITCKASQNVGTAVAWFQQKPGQSPKILIYSASIRYPGVPDRFTGSGSGTDFTLTTSNVQSEDLADYFCLQYITFPRTFGGGTKLYIK
B7: 81A1F8-VH-11/VL-11 (antibody, V domains shown)
VH: QVQLVQSGAEVKKPGASVKVSCKASGYLFTGYYMNWVRQAPGQGLEWMGEINPNTGDTNNNQKFKARVTMTVDRSISTAYMELSRLRSDDTAVYYCVRRDYGTSLDYWGQGTLVTVSS
VL: DVQITQSPSSLSASVGDRVTITCRASKSINKYLAWYQQKPGKAPKLLIHSGSTLQSGVPSRFSGSRSGTDFTLTISSLQPEDFATYYCQQHNEYPITFGQGTKLEIK
B8: 81A1F8-VH-31/VL-11 (antibody, V domains shown)
VH: QVQLVQSGAEVKKPGASVKVSCKASGYLFTGYYMNWVRQAPGQRLEWMGEINPNTGDTNNNQKFKARVTITVDRSASTAYMELSSLRSEDTAVYYCVRRDYGTSLDYWGQGTLVTVSS
VL: DVQITQSPSSLSASVGDRVTITCRASKSINKYLAWYQQKPGKAPKLLIHSGSTLQSGVPSRFSGSRSGTDFTLTISSLQPEDFATYYCQQHNEYPITFGQGTKLEIK
B9: 81A1F8-VH-11/VL-21 (antibody, V domains shown)
VH: QVQLVQSGAEVKKPGASVKVSCKASGYLFTGYYMNWVRQAPGQGLEWMGEINPNTGDTNNNQKFKARVTMTVDRSISTAYMELSRLRSDDTAVYYCVRRDYGTSLDYWGQGTLVTVSS
VL: DVQITQSPSFLSASVGDRVTITCRASKSINKYLAWYQQKPGKAPKLLIHSGSTLQSGVPSRFSGSRSGTEFTLTISSLQPEDFATYYCQQHNEYPITFGQGTKLEIK
B10: 81A1F8-VH-21/VL-41 (antibody, V domains shown)
VH: QVQLVQSGAEVKKPGASVKVSCKASGYLFTGYYMNWVRQAPGQGLEWMGEINPNTGDTNNNQKFKARVTMTVDRSTSTAYMELSSLRSEDTAVYYCVRRDYGTSLDYWGQGTLVTVSS
VL: DVQITQSPSTLSASVGDRVTITCRASKSINKYLAWYQQKPGKAPKLLIHSGSTLQSGVPSRFSGSRSGTEFTLTISSLQPDDFATYYCQQHNEYPITFGQGTKLEIK
B11: 81A1F8-VH-21/VL-11 (antibody, V domains shown)
VH: QVQLVQSGAEVKKPGASVKVSCKASGYLFTGYYMNWVRQAPGQGLEWMGEINPNTGDTNNNQKFKARVTMTVDRSTSTAYMELSSLRSEDTAVYYCVRRDYGTSLDYWGQGTLVTVSS
VL: DVQITQSPSSLSASVGDRVTITCRASKSINKYLAWYQQKPGKAPKLLIHSGSTLQSGVPSRFSGSRSGTDFTLTISSLQPEDFATYYCQQHNEYPITFGQGTKLEIK
B12: 81A1F8-VH-11/VL-41 (antibody, V domains shown)
VH: QVQLVQSGAEVKKPGASVKVSCKASGYLFTGYYMNWVRQAPGQGLEWMGEINPNTGDTNNNQKFKARVTMTVDRSISTAYMELSRLRSDDTAVYYCVRRDYGTSLDYWGQGTLVTVSS
VL: DVQITQSPSTLSASVGDRVTITCRASKSINKYLAWYQQKPGKAPKLLIHSGSTLQSGVPSRFSGSRSGTEFTLTISSLQPDDFATYYCQQHNEYPITFGQGTKLEIK
B13: 81A1F8-VH-21/VL-31 (antibody, V domains shown)
VH: QVQLVQSGAEVKKPGASVKVSCKASGYLFTGYYMNWVRQAPGQGLEWMGEINPNTGDTNNNQKFKARVTMTVDRSTSTAYMELSSLRSEDTAVYYCVRRDYGTSLDYWGQGTLVTVSS
VL: DVQITQSPSSLSASVGDRVTITCRASKSINKYLAWYQQKPGKVPKLLIHSGSTLQSGVPSRFSGSRSGTDFTLTISSLQPEDFATYYCQQHNEYPITFGQGTKLEIK
B14: 81A1F8-VH-21/VL-21 (antibody, V domains shown)
VH: QVQLVQSGAEVKKPGASVKVSCKASGYLFTGYYMNWVRQAPGQGLEWMGEINPNTGDTNNNQKFKARVTMTVDRSTSTAYMELSSLRSEDTAVYYCVRRDYGTSLDYWGQGTLVTVSS
VL: DVQITQSPSFLSASVGDRVTITCRASKSINKYLAWYQQKPGKAPKLLIHSGSTLQSGVPSRFSGSRSGTEFTLTISSLQPEDFATYYCQQHNEYPITFGQGTKLEIK
B15: 81A1F8-VH-31/VL-41 (antibody, V domains shown)
VH: QVQLVQSGAEVKKPGASVKVSCKASGYLFTGYYMNWVRQAPGQRLEWMGEINPNTGDTNNNQKFKARVTITVDRSASTAYMELSSLRSEDTAVYYCVRRDYGTSLDYWGQGTLVTVSS
VL: DVQITQSPSTLSASVGDRVTITCRASKSINKYLAWYQQKPGKAPKLLIHSGSTLQSGVPSRFSGSRSGTEFTLTISSLQPDDFATYYCQQHNEYPITFGQGTKLEIK
B16: 81A1F8-VH-31/VL-31 (antibody, V domains shown)
VH: QVQLVQSGAEVKKPGASVKVSCKASGYLFTGYYMNWVRQAPGQRLEWMGEINPNTGDTNNNQKFKARVTITVDRSASTAYMELSSLRSEDTAVYYCVRRDYGTSLDYWGQGTLVTVSS
VL: DVQITQSPSSLSASVGDRVTITCRASKSINKYLAWYQQKPGKVPKLLIHSGSTLQSGVPSRFSGSRSGTDFTLTISSLQPEDFATYYCQQHNEYPITFGQGTKLEIK

Molecular target: T1, human CD24
Test: FACS binding; Nalm6 cells

For B1, which EC50 is on record?
Its EC50 is 70.6 nM.

B2 was tested. Which EC50 did it give?
Its EC50 is 24.9 nM.

For B3, which EC50 is on record?
The EC50 was 29.2 nM.

With B4 as the binder, how does the EC50 read?
Its EC50 is 7.84 nM.

How did the EC50 turn out when B5 was run?
The EC50 was 108 nM.

Molecular target: T2, Human CD24-mFc
Test: SPR (BIAcore)

How did the Kd turn out when B6 was run?
The Kd was 0.762 nM.

Molecular target: T2, Human CD24-mFc
Test: BLI (Gatorprime)

How did the Kd turn out when B7 was run?
The Kd was 0.0204 nM.

B8 was tested. Which Kd did it give?
The Kd was 0.247 nM.

With B9 as the binder, how does the Kd read?
Its Kd is 0.139 nM.

Which Kd does the source give for B10 here?
The Kd was 0.525 nM.

B11 was tested. Which Kd did it give?
Its Kd is 0.0158 nM.

Which Kd does the source give for B12 here?
The Kd was 0.619 nM.

B13 was tested. Which Kd did it give?
Its Kd is 0.712 nM.

For B14, which Kd is on record?
The Kd was 0.0819 nM.

How did the Kd turn out when B15 was run?
The Kd was 21600 nM.

B16 was tested. Which Kd did it give?
The Kd was 1.11 nM.
